T1: PUF4 RNA-binding domain (Saccharomyces cerevisiae, UniProt P25339 537-888)
T1 sequence: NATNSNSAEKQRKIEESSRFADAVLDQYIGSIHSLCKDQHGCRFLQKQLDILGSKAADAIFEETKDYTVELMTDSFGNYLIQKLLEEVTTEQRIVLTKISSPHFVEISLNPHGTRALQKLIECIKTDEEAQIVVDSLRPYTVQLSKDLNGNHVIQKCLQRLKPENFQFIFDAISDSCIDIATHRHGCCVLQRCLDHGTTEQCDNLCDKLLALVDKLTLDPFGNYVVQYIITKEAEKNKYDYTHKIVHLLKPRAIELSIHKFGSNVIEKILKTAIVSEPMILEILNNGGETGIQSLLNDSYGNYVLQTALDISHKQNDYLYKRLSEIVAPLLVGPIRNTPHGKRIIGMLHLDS


molecular target: T1, PUF4 RNA-binding domain; test: Mg; RNA-MaP; 20 mM Na-HEPES pH 7.4, 30 mM KOAc, 0.75 mM MgCl2, 0.1% Tween-20, 5% glycerol, 0.1 mg/mL BSA, 2 mM DTT; 25 C; 0.0125-409.6 nM protein; conditions: tags: N-His6-TEV cleaved; C-SNAP kept, Cy3B-labelled; label: tethered on chip by stalled RNA polymerase

Row | Binder | Kd [nM]
1 | Ie_S2_P5E.1_K5.1_C5.1_H5.1_[+2T]_A5.1_F5.1_T5.1 (ssRNA) RNA: UUUGAUUAAUAUGAUAUCGUUCUUUCUUGUUAUUAUUAUUCUUUCUCGAUAUCAUAUUAAUCUUU | 26
2 | Ie_S2_P5E.1_K5.1_C5.1_H5.1_[+1CTCT]_A5.1_F5.1_T5.1 (ssRNA) RNA: UUUGAUUAAUAUGAUAUCGUUCUUUCUUCUCUGUAUUAUUAUUCUUUCUCGAUAUCAUAUUAAUCUUU | 1.25
3 | Ie_S2_P5E.1_K5.1_C5.1_H5.1_[+3CCTC]_A5.1_F5.1_T5.1 (ssRNA) RNA: UUUGAUUAAUAUGAUAUCGUUCUUUCUUGUCCUCAUUAUUAUUCUUUCUCGAUAUCAUAUUAAUCUUU | 127
4 | Ie_S2_P5E.1_K5.1_C5.1_H5.1_[+1CCCT]_A5.1_F5.1_T5.1 (ssRNA) RNA: UUUGAUUAAUAUGAUAUCGUUCUUUCUUCCCUGUAUUAUUAUUCUUUCUCGAUAUCAUAUUAAUCUUU | 1.15
5 | Ie_S2_P5E.1_K5.1_C5.1_H5.1_[+1TCTC]_A5.1_F5.1_T5.1 (ssRNA) RNA: UUUGAUUAAUAUGAUAUCGUUCUUUCUUUCUCGUAUUAUUAUUCUUUCUCGAUAUCAUAUUAAUCUUU | 245
6 | Ie_S2_P5E.1_K5.1_C5.1_H5.1_[+2TCTC]_A5.1_F5.1_T5.1 (ssRNA) RNA: UUUGAUUAAUAUGAUAUCGUUCUUUCUUGUCUCUAUUAUUAUUCUUUCUCGAUAUCAUAUUAAUCUUU | 34.8
7 | Ie_S2_P5E.1_K5.1_C5.1_H5.1_[+2TTCC]_A5.1_F5.1_T5.1 (ssRNA) RNA: UUUGAUUAAUAUGAUAUCGUUCUUUCUUGUUCCUAUUAUUAUUCUUUCUCGAUAUCAUAUUAAUCUUU | 37.6
8 | Ie_S2_P5E.1_K5.1_C5.1_H5.1_[+2CCCT]_A5.1_F5.1_T5.1 (ssRNA) RNA: UUUGAUUAAUAUGAUAUCGUUCUUUCUUGCCCUUAUUAUUAUUCUUUCUCGAUAUCAUAUUAAUCUUU | 1170
9 | Ie_S2_P5E.1_K5.1_C5.1_H5.1_[+2CCTC]_A5.1_F5.1_T5.1 (ssRNA) RNA: UUUGAUUAAUAUGAUAUCGUUCUUUCUUGCCUCUAUUAUUAUUCUUUCUCGAUAUCAUAUUAAUCUUU | 1100
10 | Ie_S2_P5E.1_K5.1_C5.1_H5.1_[+3TCTC]_A5.1_F5.1_T5.1 (ssRNA) RNA: UUUGAUUAAUAUGAUAUCGUUCUUUCUUGUUCUCAUUAUUAUUCUUUCUCGAUAUCAUAUUAAUCUUU | 56.2
11 | Ib_S2_P3E.1_K3.1_C3.1_H3.1_[T1A]_[G2A]_A3.1_F3.1_T3.1 (ssRNA) RNA: UUUGAUUAAUAUGAUAUCGUUCUUUCUAAUAUAUAUUCUUUCUCGAUAUCAUAUUAAUCUUU | 889
12 | Ib_S2_P3E.1_K3.1_C3.1_H3.1_[T1C]_[T3C]_A3.1_F3.1_T3.1 (ssRNA) RNA: UUUGAUUAAUAUGAUAUCGUUCUUUCUCGCAUAUAUUCUUUCUCGAUAUCAUAUUAAUCUUU | > 2300
13 | Ib_S2_P3E.1_K3.1_C3.1_H3.1_[T1G]_[A4G]_A3.1_F3.1_T3.1 (ssRNA) RNA: UUUGAUUAAUAUGAUAUCGUUCUUUCUGGUGUAUAUUCUUUCUCGAUAUCAUAUUAAUCUUU | 10.7
14 | Ie_S2_P5E.1_K5.1_C5.1_H5.1_[+2CC]_A5.1_F5.1_T5.1 (ssRNA) RNA: UUUGAUUAAUAUGAUAUCGUUCUUUCUUGCCUAUUAUUAUUCUUUCUCGAUAUCAUAUUAAUCUUU | 679
15 | Ie_S2_P5E.1_K5.1_C5.1_H5.1_[+2CT]_A5.1_F5.1_T5.1 (ssRNA) RNA: UUUGAUUAAUAUGAUAUCGUUCUUUCUUGCUUAUUAUUAUUCUUUCUCGAUAUCAUAUUAAUCUUU | 725
16 | Ie_S2_P5E.1_K5.1_C5.1_H5.1_[+2TT]_A5.1_F5.1_T5.1 (ssRNA) RNA: UUUGAUUAAUAUGAUAUCGUUCUUUCUUGUUUAUUAUUAUUCUUUCUCGAUAUCAUAUUAAUCUUU | 6.21
17 | Ie_S2_P5E.1_K5.1_C5.1_H5.1_[+1CTCTC]_A5.1_F5.1_T5.1 (ssRNA) RNA: UUUGAUUAAUAUGAUAUCGUUCUUUCUUCUCUCGUAUUAUUAUUCUUUCUCGAUAUCAUAUUAAUCUUU | 204
18 | Ie_S2_P5E.1_K5.1_C5.1_H5.1_[+1CCTCT]_A5.1_F5.1_T5.1 (ssRNA) RNA: UUUGAUUAAUAUGAUAUCGUUCUUUCUUCCUCUGUAUUAUUAUUCUUUCUCGAUAUCAUAUUAAUCUUU | 1.23
19 | Ie_S2_P5E.1_K5.1_C5.1_H5.1_[+2CCTCT]_A5.1_F5.1_T5.1 (ssRNA) RNA: UUUGAUUAAUAUGAUAUCGUUCUUUCUUGCCUCUUAUUAUUAUUCUUUCUCGAUAUCAUAUUAAUCUUU | > 2300
20 | Ie_S2_P5E.1_K5.1_C5.1_H5.1_[+3CCTCT]_A5.1_F5.1_T5.1 (ssRNA) RNA: UUUGAUUAAUAUGAUAUCGUUCUUUCUUGUCCUCUAUUAUUAUUCUUUCUCGAUAUCAUAUUAAUCUUU | 35.3
21 | Ie_S2_P5E.1_K5.1_C5.1_H5.1_[+3CCCTT]_A5.1_F5.1_T5.1 (ssRNA) RNA: UUUGAUUAAUAUGAUAUCGUUCUUUCUUGUCCCUUAUUAUUAUUCUUUCUCGAUAUCAUAUUAAUCUUU | 54.6

Row | Binder | Kd [nM]
22 | Ie_S2_P5E.1_K5.1_C5.1_H5.1_[+2TTCCT]_A5.1_F5.1_T5.1 (ssRNA) RNA: UUUGAUUAAUAUGAUAUCGUUCUUUCUUGUUCCUUAUUAUUAUUCUUUCUCGAUAUCAUAUUAAUCUUU | 27.4
23 | Ie_S2_P5E.1_K5.1_C5.1_H5.1_[+3TTCCT]_A5.1_F5.1_T5.1 (ssRNA) RNA: UUUGAUUAAUAUGAUAUCGUUCUUUCUUGUUUCCUAUUAUUAUUCUUUCUCGAUAUCAUAUUAAUCUUU | 46.3
24 | Ie_S2_P5E.1_K5.1_C5.1_H5.1_[+1CCCTT]_A5.1_F5.1_T5.1 (ssRNA) RNA: UUUGAUUAAUAUGAUAUCGUUCUUUCUUCCCUUGUAUUAUUAUUCUUUCUCGAUAUCAUAUUAAUCUUU | 1.2
25 | Ie_S2_P5E.1_K5.1_C5.1_H5.1_[+2CTCTC]_A5.1_F5.1_T5.1 (ssRNA) RNA: UUUGAUUAAUAUGAUAUCGUUCUUUCUUGCUCUCUAUUAUUAUUCUUUCUCGAUAUCAUAUUAAUCUUU | 724
26 | Ie_S2_P5E.1_K5.1_C5.1_H5.1_[+2TCTCT]_A5.1_F5.1_T5.1 (ssRNA) RNA: UUUGAUUAAUAUGAUAUCGUUCUUUCUUGUCUCUUAUUAUUAUUCUUUCUCGAUAUCAUAUUAAUCUUU | 39.3
27 | Ie_S2_P5E.1_K5.1_C5.1_H5.1_[+1CTT]_A5.1_F5.1_T5.1 (ssRNA) RNA: UUUGAUUAAUAUGAUAUCGUUCUUUCUUCUUGUAUUAUUAUUCUUUCUCGAUAUCAUAUUAAUCUUU | 1.16
28 | Ie_S2_P5E.1_K5.1_C5.1_H5.1_[+2CTC]_A5.1_F5.1_T5.1 (ssRNA) RNA: UUUGAUUAAUAUGAUAUCGUUCUUUCUUGCUCUAUUAUUAUUCUUUCUCGAUAUCAUAUUAAUCUUU | 499
29 | Ie_S2_P5E.1_K5.1_C5.1_H5.1_[+3CTC]_A5.1_F5.1_T5.1 (ssRNA) RNA: UUUGAUUAAUAUGAUAUCGUUCUUUCUUGUCUCAUUAUUAUUCUUUCUCGAUAUCAUAUUAAUCUUU | 10.1
30 | Ie_S2_P5E.1_K5.1_C5.1_H5.1_[+3TCC]_A5.1_F5.1_T5.1 (ssRNA) RNA: UUUGAUUAAUAUGAUAUCGUUCUUUCUUGUUCCAUUAUUAUUCUUUCUCGAUAUCAUAUUAAUCUUU | 11.4
31 | Ie_S2_P5E.1_K5.1_C5.1_H5.1_[+2TCT]_A5.1_F5.1_T5.1 (ssRNA) RNA: UUUGAUUAAUAUGAUAUCGUUCUUUCUUGUCUUAUUAUUAUUCUUUCUCGAUAUCAUAUUAAUCUUU | 11.1
32 | Ie_S2_P5E.1_K5.1_C5.1_H5.1_[+4TTC]_A5.1_F5.1_T5.1 (ssRNA) RNA: UUUGAUUAAUAUGAUAUCGUUCUUUCUUGUAUUCUUAUUAUUCUUUCUCGAUAUCAUAUUAAUCUUU | 2.96
33 | Ie_S2_P5E.1_K5.1_C5.1_H5.1_[+2CTT]_A5.1_F5.1_T5.1 (ssRNA) RNA: UUUGAUUAAUAUGAUAUCGUUCUUUCUUGCUUUAUUAUUAUUCUUUCUCGAUAUCAUAUUAAUCUUU | 368
34 | Ie_S2_P5E.1_K5.1_C5.1_H5.1_[+2TTC]_A5.1_F5.1_T5.1 (ssRNA) RNA: UUUGAUUAAUAUGAUAUCGUUCUUUCUUGUUCUAUUAUUAUUCUUUCUCGAUAUCAUAUUAAUCUUU | 6.91
35 | Ie_S2_P5E.1_K5.1_C5.1_H5.1_[+1TTT]_A5.1_F5.1_T5.1 (ssRNA) RNA: UUUGAUUAAUAUGAUAUCGUUCUUUCUUUUUGUAUUAUUAUUCUUUCUCGAUAUCAUAUUAAUCUUU | 1.6
36 | Ie_S2_P5E.1_K5.1_C5.1_H5.1_[+3TTT]_A5.1_F5.1_T5.1 (ssRNA) RNA: UUUGAUUAAUAUGAUAUCGUUCUUUCUUGUUUUAUUAUUAUUCUUUCUCGAUAUCAUAUUAAUCUUU | 11.3
37 | Ie_S2_P5E.1_K5.1_C5.1_H5.1_[+2TCC]_A5.1_F5.1_T5.1 (ssRNA) RNA: UUUGAUUAAUAUGAUAUCGUUCUUUCUUGUCCUAUUAUUAUUCUUUCUCGAUAUCAUAUUAAUCUUU | 22.2
38 | Ie_S2_P5E.1_K5.1_C5.1_H5.1_[+3CCC]_A5.1_F5.1_T5.1 (ssRNA) RNA: UUUGAUUAAUAUGAUAUCGUUCUUUCUUGUCCCAUUAUUAUUCUUUCUCGAUAUCAUAUUAAUCUUU | 24.4
39 | Ie_S2_P5E.1_K5.1_C5.1_H5.1_[+4TCC]_A5.1_F5.1_T5.1 (ssRNA) RNA: UUUGAUUAAUAUGAUAUCGUUCUUUCUUGUAUCCUUAUUAUUCUUUCUCGAUAUCAUAUUAAUCUUU | 2.6
40 | Ie_S2_P5E.1_K5.1_C5.1_H5.1_[+4CTT]_A5.1_F5.1_T5.1 (ssRNA) RNA: UUUGAUUAAUAUGAUAUCGUUCUUUCUUGUACUUUUAUUAUUCUUUCUCGAUAUCAUAUUAAUCUUU | 1.36
41 | Ie_S2_P5E.1_K5.1_C5.1_H5.1_[+3TTC]_A5.1_F5.1_T5.1 (ssRNA) RNA: UUUGAUUAAUAUGAUAUCGUUCUUUCUUGUUUCAUUAUUAUUCUUUCUCGAUAUCAUAUUAAUCUUU | 7.67

— paper PMC9352680, “A comprehensive thermodynamic model for RNA binding by the Saccharomyces cerevisiae Pumilio protein PUF4”
